Source: US10813788B2, “Implantable therapeutic device” (ForSight Vision4, Inc., priority 2009, dated 2020)
Values joined by “and” are separate entries in the source; they are usually repeats but may differ in a detail not shown here. Equal entries are not always repeated. Where two headings read alike, the source gives them in different places. Each block holds one compound with its values, some of them ahead of it.

Experiments:
[1] = amino acid side chain; cited from earlier work
[2] = Solubility of triamcinolone acetonide; conditions: suspension, in the buffer at 37° C. when implanted
[3] = RRI for Avastin of porous frits characterised by gas flow, Example 17C (Table 7); type: physicochemical
Description: The flow through the porous structure can be measured with a decay time of the gas pressure, for example with the flow rate across the porous structure with a pressure drop across the porous frit structure, as described herein. The flow rate and RRI can be determined based on the media grade of the material, for example as commercially available media grade material available from Mott Corp. The therapeutic agent can be measured through the porous structure, or a similar test molecule. […] Based on the teachings described herein, a person of ordinary skill in the art can conduct experiments to determine empirically the correspondence of flow rate with a gas to the release rate of the therapeutic agent.

[4] = Measured release of Avastin through porous frit structures, Examples 12-13; type: physicochemical
[5] = as above; type: physicochemical; conditions: for RRI (mm): single devices; for determined RRI: reservoir 20 uL
Description: For the analysis of data up to 130 days, the first data point is excluded from the fit because the model assumes the maximum delivery rate occurs at time zero while there is some startup time often associated with measured release profiles. The startup time may be related to the time it takes to displace all of the air in the frit. Use of different techniques to displace the air in the frit may reduce the startup time.

[6] = Osmolarity of saline and commercial formulations (Table 1B, calculations); type: physicochemical; conditions: Summary of Calculations
Description: The formulation of therapeutic agent injected into therapeutic device 100 may comprise many known formulations of therapeutic agents, and the formulation therapeutic agent comprises an osmolarity suitable for release for an extended time from device 100.
The vitreous humor of the eye comprises an osmolarity of about 290 mOsm to about 320 mOsm. Formulations of therapeutic agent having an osmolarity from about 280 mOsm to about 340 mOsm are substantially isotonic and substantially iso-osmotic with respect to the vitreous humor of the eye. Although the formulations listed in Table 1B are substantially iso-osmotic and isotonic with respect to the vitreous of the eye and suitable for injection into the therapeutic device, the formulation of the therapeutic agent injected into the therapeutic device can be hypertonic (hyper-osmotic) or hypotonic (hypo-osmotic) with respect to the tonicity and osmolarity of the vitreous. […]

[7] = Measured release of ranibizumab 40 and 100 mg/mL from a population of devices, Example C; type: physicochemical; conditions: at 15 weeks, 25 uL, RRI 0.02
Description: Therapeutic devices having stainless steel porous frit structures and formulations were prepared in accordance with Examples A and B. The devices had volumes of 25 uL and an RRI of 0.02.
Pressure decay tests of the assembled porous frit structures were conducted as described herein.
Eighteen devices were injected with the 100 mg/mL formulation and 18 devices were injected with the 40 mg/mL formulation. However, measurements of some devices were stopped for other assays every 4 months so only 6 devices for each formulation have release data through 180 days. The rate of release was measured for 16 weeks, and the amount release after each 2 week interval determined. […] The data indicates a measured rate of 3.5 and 8.1 ug/day at 15 weeks, for the 40 and 100 mg/mL formulation injections, respectively.

[8] = Measured release of ranibizumab 100 mg/mL from devices with porous titanium frit, device half life 250 days, Example B; type: physicochemical; conditions: for 100 mg/mL Rate, Average: devices with 250 day half life, n = 5
Description: The intended RRI was about 0.008 based on gas flow measurements and manufacturing as described herein. The therapeutic device reservoir volume was about 25 uL.
The formulation was filled into five devices and all underwent drug release testing for 180 days.

[9] = system: size of the lesion / retinal thickness in wet AMD (OCT); type: in vivo, human; conditions: for Treatment Effect Observed?: OCT decrease in size of the lesion
Description: OCT (Optical Coherence Tomography) imaging was used to assess the condition of the region of the macula at the back surface of the treated eye. The OCT technique relies on the measurement of certain properties of light (e.g. echo time, intensity of reflection) that has been directed at the area of study and can measure very small amounts of reflected light. Because these cellular features are essentially transparent it is possible to use OCT methodology to generate three dimensional representations of the area.
The regions of interest were analyzed with a two dimensional representation of the cross section of the retinal wall at one longitudinal scan location of the OCT image. In these “OCT scan” images is it possible to interrogate very local areas of interest more specifically. The OCT scans were carefully selected to directly compare the thickness and anatomical structure of specific sites within a lesion, pre and post treatment, for the purpose of assessing the effect of injected drug including a reduction in sub-retinal fluid.
The OCT images were measured the day after injection and at 2-3 days post injection. […]

[10] = Measured release of Lucentis through porous frit structures, Example 15B; type: physicochemical; conditions: 10 mg/mL Lucentis, 30 uL, 37 C
Description: All porous frit structures are 316L SS, Mott Corporation.
The diameter ranged from 0.031″ to 0.038″, and the length ranged from 0.029 to 0.049. The media grade ranged from 0.1 to 0.3, and the RRI ranged from 0.014 to 0.090.
Although some of the measurements were excluded, this exclusion is appropriate and associated with in vitro testing conditions that differ substantially from the in vivo model. Five devices were excluded due to bubble growth (10%), and four were excluded due to receiver volume issues at one timepoint for that device (8%). The latter can be an experimental error associated with the volume of the receiver below the assumed value due to evaporation from inadequately sealed vials or due to pipetting error. In some instances the in vitro experimental test apparatus can be sensitive to bubble formation that may differ substantially from the in vivo model as the living eye can resorb oxygen from the therapeutic devices. Bubbles can form as receiver fluid is heated to 37° C. and gas concentrations are greater than their solubilities at 37° C. To minimize the occurrence of bubble formation, receiver solutions were degassed before insertion of the devices.

[11] = Measured release of ranibizumab 40 and 100 mg/mL from devices with porous titanium frit, device half life 100 days, Example A; type: physicochemical; conditions: for RRI (mm), Mean: 25 uL device, titanium frit about 0.04 in thick, OD about 0.03 in; for 40 mg/mL Rate, Average / 100 mg/mL Rate, Average: devices with 100 day half life, unit not given
Description: No. 2010/0015157, entitled “Antibody Formulations”, the full disclosure of which is incorporated herein by reference.
Devices were fabricated using the following method. A vessel was made from two subassemblies and a porous frit structure as described herein. […] The intended RRI was about 0.02 based on gas flow measurements and manufacturing as described herein. The implantable devices were manufactured in accordance with the teachings as described herein.
Devices were filled with formulation using a 33 G needle (TSK) and a standard tuberculin 1-cc syringe (BD). Excess liquid that had exited the porous sintered frit structure during filling was removed by use of a lab tissue and submerging in phosphate buffered saline (PBS, Sigma) and 0.02% sodium azide as a preservative. Each device was suspended in the center of a 1.5 mL microcentrifuge tube by use of a fixture. The tube was filled with 0.5 mL receiver fluid; i.e., PBS that had been degassed to minimize bubble formation. At selected times, the device was removed from the receiver fluid and placed in a new tube containing fresh receiver fluid. […] For the later time points, the sample concentrations were higher and concentration was determined by UV (Perkin Elmer Lambda 35). Drug release rates were calculated from measured concentration, the volume of the receiver fluid and the duration of the collection interval. Drug release rate profiles were plotted at the average elapsed time for each collection interval. RRI was determined via a least squares fit to the model.
Each formulation was filled into ten devices. Some devices were stopped at 3 and 4 months (n=3 each), leaving four that underwent drug release testing for 180 days.

[12] = cited from earlier work; for half-life in the vitreous: rabbit and monkey
[13] = human eye; cited from earlier work
[14] = system: laser photocoagulation treatment-induced Grade IV choroidal neovascularization (CNV) lesions; conditions: intravitreal injection at all doses tested, cynomolgus monkeys; Z. Yao et al., ARVO 2009; cited from earlier work
[15] = Frit #3 (0.038 x 0.029 in), reservoir 37 uL, up to 130 days

Compound: N=C(N)NCCC[C@H](N)C(=O)O [L-Arginine]
pKa of side chain [1]: 12.0

solubility [2]: approximately 19 ug/mL
Compound: CC1(C)O[C@@H]2C[C@H]3[C@@H]4CCC5=CC(=O)C=C[C@]5(C)[C@@]4(F)[C@@H](O)C[C@]3(C)[C@]2(C(=O)CO)O1 [triamcinolone acetonide]

Compound: N[C@@H](CS)C(=O)O [L-Cysteine]
pKa of side chain [1]: 8.28

Compound: bevacizumab [Avastin]
RRI ([3]; Table 7: media grade 0.1, O.D. 0.038 in, length 0.029 in): 0.014
RRI ([3]; Table 7: media grade 0.2, O.D. 0.031 in, length 0.049 in): 0.019
RRI ([3]; Table 7: media grade 0.2, O.D. 0.038 in, length 0.029 in): 0.034 and 0.033
RRI (mm), Mean ([4]; Frit #2 (0.031 x 0.049 in), reservoir 37 uL, up to 45 days): 0.02 mm and 0.020 mm
RRI (mm), Mean for SS < 2 ([4]; Frit #2, reservoir 37 uL, up to 45 days): 0.014 mm
RRI (mm), Mean ([4]; Frit #3 (0.038 x 0.029 in), reservoir 37 uL, up to 45 days): 0.034 mm
RRI (mm), Mean [4, 15]: 0.035 mm
RRI (mm) ([4]; Frit #3 (0.038 x 0.029 in, media grade 0.2 um), 25 mg/mL Avastin, reservoir 37 uL, 37 C, up to 45 days, single devices): 0.027 mm and 0.034 mm and 0.033 mm and 0.044 mm and 0.030 mm and 0.043 mm
RRI (mm), Mean for SS < 2 ([4]; Frit #3, reservoir 37 uL, up to 45 days): 0.030 mm
release rate (RRI) ([4]; Frit #5, media grade 0.1, reservoir 20 uL, to about 90 days, FIG. 24A-1): 0.038 mm
RRI ([4]; Frit #6, reservoir 20 uL, to about 90 days, FIG. 23A-1): 0.053 mm
RRI (mm), Mean ([5]; Frit #2 (0.031 x 0.049 in), reservoir 37 uL, up to 130 days): 0.024 mm
RRI (mm), Mean for SS < 2 ([5]; Frit #2, reservoir 37 uL, up to 130 days): 0.014 mm
RRI (mm) [5, 15]: 0.031 mm and 0.030 mm and 0.029 mm and 0.034 mm and 0.044 mm and 0.045 mm
RRI (mm), Mean for SS < 2 ([5]; Frit #3, reservoir 37 uL, up to 130 days): 0.030 mm
determined RRI ([5]; Frit #5 (0.038 x 0.029 in, media grade 0.1 um), 25 mg/mL Avastin, 37 C, FIG. 24A): 0.03
determined RRI ([5]; Frit #6 (0.038 x 0.029 in, media grade 0.2 um), 25 mg/mL Avastin, 37 C, FIG. 23A): 0.05 mm
RRI (mm) ([5]; Table 5A: 16 uL reservoir, 25 mg/mL Avastin, Frit #2 (0.031 x 0.049 in, media grade 0.2 um, 316L SS), 37 C): 0.018 mm and 0.022 mm
RRI (mm) ([5]; Table 5A: 33 uL reservoir, 25 mg/mL Avastin, Frit #2 (0.031 x 0.049 in, media grade 0.2 um, 316L SS), 37 C): 0.015 mm and 0.018 mm
Osm [6]: 0.182 M

Compound: N[C@@H](CC(=O)O)C(=O)O [L-Aspartic Acid]
pKa of side chain [1]: 3.8

MIC for a sustained release device ([9]; minimum inhibitory concentration in vivo in human patients, indicated by the low dose study): ≤ 1 ug per ml
Compound: ranibizumab [Lucentis]
measured rate of release ([7]; 40 mg/mL formulation): 3.5 µg/day
measured rate of release ([7]; 100 mg/mL formulation): 8.1 µg/day
RRI (mm), Mean ([8]; 100 mg/mL formulation, 25 uL device, titanium frit 0.031 in thick, OD 0.031): 0.008 mm
100 mg/mL Rate, Average ([8]; Day 90): 5.6 µg/day and 5.59 µg/day
100 mg/mL Rate, Average ([8]; Day 180): 4.51 µg/day
Treatment Effect Observed? ([9]; single patient, lowest dose administered 10 μg intravitreal): Yes
Treatment Effect Observed? ([9]; single patients, lowest dose administered 5 μg intravitreal): Yes
Treatment Effect Observed? ([9]; single patients, lowest dose administered 20 μg intravitreal): Yes
RRI (mm) ([10]; frit 0.031 x 0.049 in, media grade 0.1 um, 2 replicates): 0.014 mm
RRI (mm) ([10]; frit 0.031 x 0.049 in, media grade 0.2 um, 12 replicates): 0.021 mm
RRI (mm) ([10]; frit 0.038 x 0.029 in, media grade 0.1 um, 5 replicates): 0.039 mm
RRI (mm) ([10]; frit 0.038 x 0.029 in, media grade 0.2 um, 14 replicates): 0.061 mm
RRI (mm) ([10]; frit 0.038 x 0.029 in, media grade 0.3 um, 6 replicates): 0.090 mm
RRI (mm), Mean ([11]; 40 mg/mL formulation): 0.02 mm and 0.024 mm
RRI (mm), Mean ([11]; 100 mg/mL formulation): 0.02 mm and 0.021 mm
40 mg/mL Rate, Average ([11]; Day 90, n = 7): 5.52
100 mg/mL Rate, Average ([11]; Day 90, n = 7): 9.51
40 mg/mL Rate, Average ([11]; Day 180, n = 4): 2.42
100 mg/mL Rate, Average ([11]; Day 180, n = 4): 5.13
Osm [6]: 0.289 M
Half-life ([12]; half-life measured for the monkey, parameter of Simulations 1-5 (Table 4A)): 63.1 h
half-life in the vitreous [12]: two to four
half-life in the vitreous ([12]; listed as ranibizumab): approximately 3 days
half-life in the vitreous [13]: ~220 h
development of Grade IV CNV lesions [14]: completely inhibited
